Laboratory results taken from article PMC5769602, “Functional assays for the assessment of the pathogenicity of variants of GOSR2, an ER-to-Golgi SNARE involved in progressive myoclonus epilepsies” (Disease Models & Mechanisms, 2017).

T1: Sed5 211-320 (SNARE domain) (yeast, UniProt Q01590 211-320)
T1 construct: Sed5, yeast ER-to-Golgi Qa-SNARE, SNARE domain, residues 211-320; also called Qa-SNARE; source: E. coli BL21 (DE3), purified (Ni2+-NTA, ion exchange)
T1 sequence (looked up): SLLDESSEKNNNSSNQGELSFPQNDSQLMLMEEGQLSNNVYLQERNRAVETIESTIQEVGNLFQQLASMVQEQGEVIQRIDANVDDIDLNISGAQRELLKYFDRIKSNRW

T2: Bet1 1-118 (yeast, UniProt P22804 1-118)
T2 construct: Bet1, yeast ER-to-Golgi Qc-SNARE, residues 1-118 (not only the SNARE domain); also called Qc-SNARE; source: E. coli BL21 (DE3), purified (Ni2+-NTA, ion exchange)
T2 sequence (looked up): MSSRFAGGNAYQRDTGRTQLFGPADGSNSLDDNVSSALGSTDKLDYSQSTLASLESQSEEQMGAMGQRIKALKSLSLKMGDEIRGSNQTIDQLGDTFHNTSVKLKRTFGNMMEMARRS


Legend:
[1] = molecular target: the molecule itself; assay: SEC; individual purified SNARE domains of the Bos1 variants (oligomeric state of single proteins); Superdex 75, PBS with 200 mM NaCl
[2] = molecular target: T1, Sed5 211-320 (SNARE domain); assay: SEC; quaternary SNARE complexes assembled from equal amounts of purified Sed5 (211-320), Bet1 (1-118), Sec22 (126-186) and one Bos1 (151-221) variant, incubated overnight; Superdex 75, PBS with 200 mM NaCl; conditions: both partners purified
Bet1 1-118 [3] = molecular target: T2, Bet1 1-118; assay: as above; conditions: both partners purified
Bet1 1-118 [4] = molecular target: T2, Bet1 1-118; assay: fluorescence polarisation; fluorescence anisotropy over time; 500 nM OG-labelled Sec22 126-186 C131OG mixed with 2.7 uM Sed5 211-320, Bet1 1-118 and Bos1 151-221 or its mutants; PBS, 25°C; conditions: both partners purified
[5] = molecular target: T1, Sed5 211-320 (SNARE domain); assay: as above; conditions: both partners purified

Row | binding result [2] | binding result (Bet1 1-118 [3]) | binding result (Bet1 1-118 [4]) | binding result [5] | Binder | binding result [1]
1 | binds | binds |  |  | Bos1 151-221 p.Arg196del (domain or fragment, Saccharomyces cerevisiae, UniProt P25385 151-221, looked up, Bos1, Saccharomyces cerevisiae, SNARE domain, residues 151-221, with arginine 196 deleted (orthologous to GOSR2 p.Lys164del); also called Bos1 p.Arg196del; source: E. coli BL21 (DE3), purified (Ni2+-NTA, ion exchange)) LYQGLQKEQSVFERGNAQLDYILEMGQQSFENIVEQNKILSKVQDMSNGLRTLGVSEQTITSINKRVFKD | binds
2 | binds |  | binds |  | Bos1 151-221 wild type (SNARE domain) (domain or fragment, Saccharomyces cerevisiae, UniProt P25385 151-221, looked up, Bos1, Saccharomyces cerevisiae, SNARE domain, residues 151-221; Forms homo-oligomers of unstated size as the isolated SNARE domain; also called Bos1 wt; wild-type Bos1; source: E. coli BL21 (DE3), purified (Ni2+-NTA, ion exchange)) LYQGLQKEQSVFERGNAQLDYILEMGQQSFENIVEQNKILSKVQDRMSNGLRTLGVSEQTITSINKRVFKD | binds
3 | binds | binds |  |  | Bos1 151-221 p.Gly176Asp (domain or fragment, Saccharomyces cerevisiae, UniProt P25385 151-221, looked up, Bos1, Saccharomyces cerevisiae, SNARE domain, residues 151-221, with the designed Gly176Asp mutation; also called Bos1 p.Gly176Asp; source: E. coli BL21 (DE3), purified (Ni2+-NTA, ion exchange)) LYQGLQKEQSVFERGNAQLDYILEMDQQSFENIVEQNKILSKVQDRMSNGLRTLGVSEQTITSINKRVFKD | binds
4 |  |  | binds | binds | Bos1 151-221 p.Gly176Trp (domain or fragment, Saccharomyces cerevisiae, UniProt P25385 151-221, looked up, Bos1, Saccharomyces cerevisiae, SNARE domain, residues 151-221, with Gly176Trp (orthologous to GOSR2 p.Gly144Trp); also called Bos1 p.Gly176Trp; source: E. coli BL21 (DE3), purified (Ni2+-NTA, ion exchange)) LYQGLQKEQSVFERGNAQLDYILEMWQQSFENIVEQNKILSKVQDRMSNGLRTLGVSEQTITSINKRVFKD | 
